“And” between values parts separate entries of the source, which are not always exact repeats. Equal entries are not always repeated.
How the values were obtained:
[1] = molecular target: T1, recombinant human CAP1 (human), Q01518; test: ELISA; settings: remark: other sources report otherwise
T1 chain: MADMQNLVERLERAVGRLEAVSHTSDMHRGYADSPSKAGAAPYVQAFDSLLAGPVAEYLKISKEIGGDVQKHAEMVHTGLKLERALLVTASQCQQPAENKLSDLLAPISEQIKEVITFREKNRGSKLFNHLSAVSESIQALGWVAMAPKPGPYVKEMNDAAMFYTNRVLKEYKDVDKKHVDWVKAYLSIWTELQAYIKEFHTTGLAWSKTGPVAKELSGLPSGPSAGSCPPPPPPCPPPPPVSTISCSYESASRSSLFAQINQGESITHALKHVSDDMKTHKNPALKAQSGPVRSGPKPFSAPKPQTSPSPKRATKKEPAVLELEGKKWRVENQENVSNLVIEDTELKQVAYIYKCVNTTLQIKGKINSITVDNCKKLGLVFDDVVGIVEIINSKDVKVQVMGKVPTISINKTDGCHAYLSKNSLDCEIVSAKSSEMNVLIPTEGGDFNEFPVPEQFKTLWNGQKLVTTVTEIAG

[2] = molecular target: T2, adenovirus-delivered human resistin (human), Q9HD89; test: non-reducing SDS gel; settings: remark: other sources report otherwise
T2 chain: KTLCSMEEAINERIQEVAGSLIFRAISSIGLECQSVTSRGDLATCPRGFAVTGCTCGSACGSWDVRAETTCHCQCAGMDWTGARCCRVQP

B1: non-Fc-conjugated recombinant human resistin protein, Q9HD89 19-108 (ligand)
chain: T2 chain
With B1 the EC50 [1] was 0.784 µM.

B2: adenovirus-delivered human resistin, Q9HD89 19-108 (ligand)
chain: T2 chain
For B2, the stoichiometry N [2] was 3 and 2.

Reference: publication PMC3969988
